From the Human Domainome abundance scans (Beltran et al. 2025)
± gives the uncertainty stated by the source.

B1: Far upstream element-binding protein 1, residues 184 to 257; numbered along this chain, Q96AE4 (parent)
chain: GNAVQEIMIPASKAGLVIGKGGETIKQLQERAGVKMVMIQDGPQNTGADKPLRITGDPYKVQQAKEMVLELIRD

Variants of: B1
Test: abundance fitness (aPCA) (normalised: wild type 0, dead -1); higher = more abundant; growth selection in yeast, the domain comes from the species named
Conditions: Homo sapiens

Variant | abundance fitness
K26Y | -0.041 ± 0.048
K26D | -0.111 ± 0.044
G47F | -0.014 ± 0.053
G47A | -0.02 ± 0.031
G47T | -0.018 ± 0.035
G47S | -0.001 ± 0.031
G19P | -0.629 ± 0.047
G19H | -0.376 ± 0.061
G19Q | -0.363 ± 0.043
G19R | -0.438 ± 0.03
G19E | -0.297 ± 0.036
G19V | -0.763 ± 0.043
Y59A | 0.011 ± 0.029
Y59L | 0.026 ± 0.028
Y59H | 0.044 ± 0.044
Y59D | 0.057 ± 0.042
Y59S | 0.006 ± 0.029
L28N | -0.415 ± 0.057
R31V | -0.113 ± 0.031
R31I | -0.12 ± 0.058
R31W | -0.221 ± 0.037
V68D | -0.359 ± 0.041
L69H | -0.073 ± 0.047
L69Q | 0.003 ± 0.036

Variant | abundance fitness
L69A | -0.01 ± 0.03
L69G | -0.018 ± 0.028
I54V | -0.148 ± 0.033
I54H | -1.03 ± 0.12
I54C | -0.504 ± 0.054
S12V | -0.059 ± 0.033
S12A | 0.012 ± 0.033
S12K | 0.011 ± 0.039
S12C | -0.133 ± 0.044
N45D | 0.013 ± 0.038
N45L | -0.128 ± 0.033
Q63T | -0.039 ± 0.033
V61L | -0.286 ± 0.031
V61F | -0.599 ± 0.063
V61D | -0.881 ± 0.073
A32M | -0.009 ± 0.042
M36Q | -0.656 ± 0.05
G21I | -0.278 ± 0.053
G21C | -0.076 ± 0.044
A11K | -0.011 ± 0.037
A11C | -0.034 ± 0.043
A11W | -0.17 ± 0.033
T55Q | -0.022 ± 0.038
T55N | -0.138 ± 0.042

Variant | abundance fitness
T55L | -0.05 ± 0.032
R53A | -0.14 ± 0.033
R53E | -0.116 ± 0.036
G15A | -0.126 ± 0.031
G15S | -0.04 ± 0.03
K50L | 0.019 ± 0.03
I72S | -0.301 ± 0.032
M67G | -0.177 ± 0.028
M67Q | -0.067 ± 0.039
G1L | -0.042 ± 0.049
G1E | -0.061 ± 0.039
M38A | -0.183 ± 0.032
M38Y | -0.094 ± 0.057
M38V | -0.007 ± 0.031
M38C | -0.166 ± 0.044
D49K | -0.087 ± 0.036
D49P | -0.01 ± 0.038
D49A | -0.029 ± 0.032
D49T | -0.045 ± 0.035
P51C | -0.005 ± 0.044
P51M | 0.028 ± 0.041
D57V | -0.085 ± 0.029
K13D | -0.155 ± 0.048
K13S | -0.078 ± 0.031

Variant | abundance fitness
V34C | -0.086 ± 0.043
V34Y | -1.11 ± 0.12
L71H | -0.102 ± 0.051
L71R | -0.087 ± 0.027
Q27E | -0.001 ± 0.037
Q27L | -0.083 ± 0.033
Q27S | -0.021 ± 0.032
Q27N | -0.012 ± 0.05
E70K | 0.002 ± 0.036
E70T | -0.056 ± 0.037
E70Y | -0.196 ± 0.044
E70C | -0.105 ± 0.039
G42I | -0.052 ± 0.054
L52V | -0.145 ± 0.03
L52E | -0.956 ± 0.056
L52T | -0.878 ± 0.053
L52M | -0.047 ± 0.037
G33D | -0.083 ± 0.044
G33I | -1.12 ± 0.22
G33W | -0.807 ± 0.046
G33V | -0.596 ± 0.035
G33F | -0.43 ± 0.052
I25K | -0.371 ± 0.045
I25S | -0.387 ± 0.035

Variant | abundance fitness
P58V | -0.031 ± 0.032
P58E | -0.004 ± 0.034
V4C | -0.069 ± 0.043
V4S | -0.18 ± 0.033
V4Y | -0.013 ± 0.05
K60G | -0.086 ± 0.026
K60D | -0.164 ± 0.041
K60P | -0.179 ± 0.033
K60E | -0.187 ± 0.033
A3K | 0.181 ± 0.039
A3L | 0.172 ± 0.031
A3Q | 0.133 ± 0.038
A14R | 0.001 ± 0.028
A14N | -0.061 ± 0.058
A14S | -0.049 ± 0.032
A14L | 0.042 ± 0.031
A14Q | 0.028 ± 0.038
L16G | -0.191 ± 0.029
Q62Y | -0.04 ± 0.051
Q62K | -0.022 ± 0.035
M8A | -0.124 ± 0.032
M8V | -0.323 ± 0.032
I18Y | -0.106 ± 0.057
I18V | -0.018 ± 0.031

Variant | abundance fitness
I18T | 0.011 ± 0.032
I18G | -0.148 ± 0.029
I18M | -0.065 ± 0.041
D41A | -0.077 ± 0.031
E30I | -0.03 ± 0.054
E30D | -0.024 ± 0.046
E30H | -0.016 ± 0.048
K65M | -0.07 ± 0.038
K65Y | -0.11 ± 0.054
K65N | -0.129 ± 0.046
K65H | -0.056 ± 0.047
K65G | -0.086 ± 0.028
K65D | -0.577 ± 0.056
T24E | -0.08 ± 0.038
P10Y | -1.03 ± 0.12
P10G | -0.557 ± 0.031
G22Y | -0.237 ± 0.055
I7T | -0.564 ± 0.045
I7V | -0.045 ± 0.03
V37Q | -0.025 ± 0.038
V37T | -0.026 ± 0.037
V37W | -0.059 ± 0.033
Q40Y | -0.049 ± 0.061
Q40V | -0.052 ± 0.032

Variant | abundance fitness
N2E | 0.176 ± 0.037
N2M | 0.201 ± 0.038
K20P | -0.026 ± 0.032
K20E | -0.01 ± 0.036
P43G | 0.05 ± 0.03
P43I | -0.011 ± 0.067
Q44S | -0.04 ± 0.032
Q5I | 0.014 ± 0.05
E6V | -0.028 ± 0.031
E6D | -0.1 ± 0.043
E6N | -0.146 ± 0.047
E6G | -0.358 ± 0.028
K35F | -0.261 ± 0.053
K35D | -0.07 ± 0.046
K35M | -0.154 ± 0.039
E23H | 0.072 ± 0.049
E23R | 0.136 ± 0.026
E23A | 0.042 ± 0.03
E23G | 0.018 ± 0.027
I39R | 0.006 ± 0.027
I39K | 0 ± 0.041
G56V | -1.26 ± 0.079
G56W | -1.22 ± 0.077
